Laboratory results: patent publication US20150218244A1 (Hoffmann-La Roche, published 2015)
Positions count from the first letter of the chain named. Names and notes keep the numbering of the source.

Legend:
[1] = biological target: T1, human IL-10R1 fused to an IgG Fc region, biotinylated (human, biotinylated (site not stated)); test: SPR, against IL-10 wild type
T1 construct: also called hu IL-10R1; IL-10R1-Fc
Experimental: (§1) The SPR assay set-up is depicted in FIG. 15. About 770 RU of the biotinylated human IL-10R1 fused to an IgG Fc region (see SEQ ID NO: 87) were captured on the neutravidin-derivatized chip matrix of an NLC chip along vertical channels at a concentration of 30 μg/ml and a flow rate of 30 μl/min for a contact time or 240 s. Binding to huIL10R1 was measured at 5 different analyte concentrations (50, 10, 2, 0.4, 0.08 nM) by injections in horizontal orientation at 50 μl/min, recording the association rate for 180 s, the dissociation rate for 600 s. Running buffer (PBST) was injected along the sixth channel to provide an “in-line” blank for referencing. Association rates (kₒₙ) and dissociation rates (koff) were calculated using a simple 1:1 Langmuir binding model (ProteOn Manager software version 2.1) by simultaneously fitting the association and dissociation sensorgrams. The equilibrium dissociation constant (KD) was calculated as the ratio koff/kₒₙ. As human IL-10R1 could not be regenerated without a loss of activity, the subsequent steps of ligand capture and analyte injection were performed channel per channel using a freshly immobilized sensorchip surface for every interaction.
A decreased affinity to the IL-10R1 may represent a distinct advantage when targeting IL-10 to inflamed tissues through fusion with an antibody. […]

[2] = biological target: T1, human IL-10R1 fused to an IgG Fc …; test: SPR (ProteOn XPR36, 25 C), about 770 RU biotinylated IL-10R1-Fc on NLC chip, his-tagged cytokine as analyte
Experimental: as §1
A decreased affinity to the IL-10R1 may represent a distinct advantage when targeting IL-10 to inflamed tissues through fusion with an antibody.

T1 sequence (chain, as listed by the source limits assumed): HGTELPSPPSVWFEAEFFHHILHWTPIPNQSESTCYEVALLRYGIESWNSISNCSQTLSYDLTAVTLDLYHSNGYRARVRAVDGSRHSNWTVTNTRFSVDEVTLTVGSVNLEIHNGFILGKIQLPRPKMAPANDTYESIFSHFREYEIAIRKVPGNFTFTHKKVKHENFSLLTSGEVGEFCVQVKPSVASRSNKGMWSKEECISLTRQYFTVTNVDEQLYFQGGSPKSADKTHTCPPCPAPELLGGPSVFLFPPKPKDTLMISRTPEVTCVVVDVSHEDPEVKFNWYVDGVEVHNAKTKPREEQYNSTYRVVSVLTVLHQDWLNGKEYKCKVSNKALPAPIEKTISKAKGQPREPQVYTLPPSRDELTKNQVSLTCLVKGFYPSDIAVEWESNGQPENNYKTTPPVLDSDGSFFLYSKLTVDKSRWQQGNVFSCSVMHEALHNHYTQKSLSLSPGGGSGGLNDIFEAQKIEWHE

B1: IL-10 (I87A)-his mutant cytokine (ligand)
chain: SPGQGTQSENSCTHFPGNLPNMLRDLRDAFSRVKTFFQMKDQLDNLLLKESLLEDFKGYLGCQALSEMIQFYLEEVMPQAENQDPDAKAHVNSLGENLKTLRLRLRRCHRFLPCENKSKAVEQVKNAFNKLQEKGIYKAMSEFDIFINYIEAYMTMKIRNVDHHHHHH
notes: The entry already carries I87A; Purified as the dimeric cytokine; also called hu IL-10 (I87A)
Question: With B1 as the binder, how does the “fold reduction of affinity compared to IL-10 wild type” value [1] read?
Answer: 10 fold

Question: What about the Kd [2] of the same binder?
Answer: 476 pM

Question: What about the koff [2] of the same binder?
Answer: 0.000219 s⁻¹

Question: What about the kon [2] of the same binder?
Answer: 461000 M⁻¹ s⁻¹

B2: IL-10 (R24A)-his mutant cytokine (ligand)
chain: B1 chain with R24A, A87I
notes: The entry already carries R24A; Purified as the dimeric cytokine; also called hu IL-10 (R24A)
Question: With B2 as the binder, how does the “fold reduction of affinity compared to IL-10 wild type” value [1] read?
Answer: 2 fold

Question: What about the Kd [2] of the same binder?
Answer: 80.7 pM

Question: And the koff [2]?
Answer: 0.000184 s⁻¹

Question: And the kon [2]?
Answer: 2.28e+06 M⁻¹ s⁻¹
